Reference: patent US20230002481A1 (Chugai, published 2023)

How the values were obtained:
cyno FcγRIIb = molecular target: T1, cyno FcγRIIb (cynomolgus monkey); assay: SPR (Biacore T200), antibody captured on Protein L, FcγR at 1000 nM, pH7.4, 25 C
T1 construct: also called cyFcyRIIb; not shown: C-terminal His-tag
T1 chain: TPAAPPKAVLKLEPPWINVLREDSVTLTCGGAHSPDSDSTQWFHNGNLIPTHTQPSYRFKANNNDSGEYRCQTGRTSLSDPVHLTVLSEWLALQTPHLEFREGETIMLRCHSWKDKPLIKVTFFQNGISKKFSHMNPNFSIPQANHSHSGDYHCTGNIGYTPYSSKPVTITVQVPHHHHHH
Description: (§1) Analysis of interaction between antibody and the FcγR prepared as mentioned above was carried out using BIACORE (registered trademark) T200 (GE Healthcare). 150 mMN Sodium chloride and 0.05 w/v % Tween-20 containing 50 mM phosphate buffer (pH7.4) was used as running buffer, and the measurement temperature was set to 25 degrees C. Chip produced by immobilizing Protein L (BioVision) by the amine coupling method to a Series S sensor Chip CM4 (GE Healthcare) was used. After capturing 500 or 1000 resonance unit (RU) of antibodies of interest onto the chip, FcγRs diluted with the running buffer were allowed to interact, and their binding amounts to antibodies were measured. Cyno FcγRIa was diluted to 8 nM, and others were diluted to 1000 nM. Then, antibodies captured onto the chip were washed by 10 mM Glycine-HC, pH1.5, and the chip was regenerated and used repeatedly. The binding amounts of FcγRs were divided by the binding amount of each antibody captured to obtain binding activity using biacore evaluation software, and these values were compared. Furthermore, the relative values of binding activity of COS0098pHv1-SG1077R to each FcγR to COS0098pHv1-SG1 (an antibody having the sequence of a naturally-occurring human IgG1 at positions 234 to 239, 265 to 271, 295, 296, 298, 300, and 324 to 337, according to EU numbering) were calculated.

cyno FcγRIIa1 = molecular target: T2, cyno FcγRIIa1 (cynomolgus monkey); assay: as above
T2 construct: also called cyFcyRIIa1; not shown: C-terminal His-tag
T2 chain: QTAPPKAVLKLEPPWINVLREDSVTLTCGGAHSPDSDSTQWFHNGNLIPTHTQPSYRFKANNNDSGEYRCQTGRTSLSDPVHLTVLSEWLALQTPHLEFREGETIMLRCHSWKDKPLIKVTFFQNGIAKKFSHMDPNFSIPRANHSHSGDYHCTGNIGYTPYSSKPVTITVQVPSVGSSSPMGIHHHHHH
Description: as §1

cyno FcγRIIa2 = molecular target: T3, cyno FcγRIIa2 (cynomolgus monkey); assay: as above
T3 construct: also called cyFcyRIIa2; not shown: C-terminal His-tag
T3 chain: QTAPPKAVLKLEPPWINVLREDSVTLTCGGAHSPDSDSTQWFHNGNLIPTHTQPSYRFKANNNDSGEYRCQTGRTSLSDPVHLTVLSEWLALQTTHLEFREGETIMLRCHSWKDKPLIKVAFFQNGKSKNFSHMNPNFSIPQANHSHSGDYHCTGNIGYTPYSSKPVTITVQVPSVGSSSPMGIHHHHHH
Description: as §1

cyno FcγRIIIa(R) = molecular target: T4, cyno FcγRIIIa(R) (cynomolgus monkey, UniProt Q8SPW2 17-208); assay: as above
T4 construct: also called cyFcyRIIIa(R); not shown: C-terminal His-tag
Description: as §1

cyno FcγRIIa3 = molecular target: T5, cyno FcγRIIa3 (cynomolgus monkey); assay: as above
T5 construct: not shown: C-terminal His-tag
T5 chain: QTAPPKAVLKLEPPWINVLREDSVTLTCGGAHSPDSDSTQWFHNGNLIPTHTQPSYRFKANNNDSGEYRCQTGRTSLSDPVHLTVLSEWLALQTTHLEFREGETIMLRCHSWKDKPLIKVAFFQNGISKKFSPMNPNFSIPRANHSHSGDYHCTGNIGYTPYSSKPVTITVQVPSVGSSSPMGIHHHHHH
Description: as §1

cyno FcγRIIIa(S) = molecular target: T6, cyno FcγRIIIa(S) (cynomolgus monkey, UniProt Q8SPW2 21-206 at identity 1.00)); assay: as above
T6 construct: also called cyFcyRIIIa(S); not shown: C-terminal His-tag
T6 chain: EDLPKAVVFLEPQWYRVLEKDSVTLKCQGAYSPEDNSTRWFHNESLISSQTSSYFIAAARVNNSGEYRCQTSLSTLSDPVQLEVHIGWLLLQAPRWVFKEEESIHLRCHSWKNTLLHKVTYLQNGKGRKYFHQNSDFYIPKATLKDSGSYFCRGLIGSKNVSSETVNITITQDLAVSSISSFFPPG
Description: as §1

[1] = molecular target: T7, cyno FcRn complexed with β2-microglobulin (cynomolgus monkey, UniProt Q8SPV9 24-290; Q8SPW0 21-119); assay: SPR (Biacore T200), antibody captured on Protein L, cyno FcRn 0-240 nM as analyte, steady-state analysis, pH6.0, 25 C
T7 construct: also called cynomolgous monkey neonatal Fc receptor
Description: Analysis of interaction between each antibody and the FcRn prepared as mentioned above was carried out using BIACORE (registered trademark) T200 (GE Healthcare). Buffer solution containing 150 mM sodium chloride, 0.05 w/v % Tween-20, 50 mM phosphate buffer (pH6.0) was used as running buffer, and the measurement temperature was set to 25 degrees C. Series S sensor Chip CM4 (GE Healthcare) onto which Protein L (BioVision) had been immobilized by the amine coupling method was used. After capturing 400 resonance unit (RU) of antibodies of interest onto the chip via the Protein L, FcRn diluted with the running buffer was allowed to interact, then the KD values were calculated. COS0098pHv1-SG1 was evaluated with 0, 250, 500, 1000, 2000, 4000 nM cyno FcRn, and COS0098pHv1-SG1077R was evaluated with 0, 15, 30, 60, 120, 240 nM cyno FcRn. Then, the chip capturing each antibody was washed by 10 mM Glycine-HCl, pH1.5, regenerated and used repeatedly. The equilibrium dissociation constant (KD (M)) for cyno FcRn was calculated for each antibody based on the steady-state analysis. The Biacore T200 Evaluation Software (GE Healthcare) was used to calculate each parameter.

cyno FcγRIa = molecular target: T8, cyno FcγRIa (cynomolgus monkey, UniProt P12314 16-288 (human entry)); assay: SPR (Biacore T200), antibody captured on Protein L, FcγRIa at 8 nM, pH7.4, 25 C
T8 construct: also called cyFcyRIa; cynomolgus monkey Fc gamma receptor Ia; not shown: C-terminal His-tag
T8 chain: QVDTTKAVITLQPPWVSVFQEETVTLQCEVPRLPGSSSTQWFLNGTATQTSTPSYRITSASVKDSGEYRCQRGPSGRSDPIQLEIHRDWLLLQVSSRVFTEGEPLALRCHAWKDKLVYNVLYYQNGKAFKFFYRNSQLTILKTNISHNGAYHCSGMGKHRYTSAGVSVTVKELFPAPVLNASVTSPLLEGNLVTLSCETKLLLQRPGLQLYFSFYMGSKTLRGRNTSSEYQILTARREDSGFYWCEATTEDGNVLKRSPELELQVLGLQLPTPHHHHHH
Description: as §1

T4 sequence (Q8SPW2 other isoform, or with tags, fused parts or gaps): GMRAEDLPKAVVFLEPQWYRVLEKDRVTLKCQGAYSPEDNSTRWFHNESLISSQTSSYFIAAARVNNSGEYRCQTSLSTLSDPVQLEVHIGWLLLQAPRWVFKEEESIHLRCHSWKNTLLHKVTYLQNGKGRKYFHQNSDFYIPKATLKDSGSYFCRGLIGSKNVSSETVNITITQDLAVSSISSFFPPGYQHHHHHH
T7 sequence (Q8SPV9 24-290 limits assumed, chain 1 of 2): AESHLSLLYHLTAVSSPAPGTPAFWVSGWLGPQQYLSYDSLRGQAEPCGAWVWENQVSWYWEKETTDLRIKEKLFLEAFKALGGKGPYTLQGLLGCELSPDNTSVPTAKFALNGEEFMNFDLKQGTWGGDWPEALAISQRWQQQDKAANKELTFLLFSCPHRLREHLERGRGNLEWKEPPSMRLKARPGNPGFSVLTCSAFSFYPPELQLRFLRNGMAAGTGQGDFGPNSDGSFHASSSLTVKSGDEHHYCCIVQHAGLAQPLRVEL
T7 sequence (Q8SPW0 21-119 limits assumed, chain 2 of 2): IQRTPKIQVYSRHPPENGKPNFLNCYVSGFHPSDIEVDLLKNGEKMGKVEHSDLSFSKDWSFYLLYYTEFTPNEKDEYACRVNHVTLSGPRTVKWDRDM

B1: COS0098pHv1-SG1077R (antibody)
heavy: QVQLVQSGAEVKKPGSSVKVSCKASGHTFSKYTVSWIRQPPGKGLEWIGIINTGGSAYPATWAKGRVTITADESTSTAYMELSSLRSEDTAVYYCARGAGDTDYTNLWGQGTLVTVSSASTKGPSVFPLAPSSKSTSGGTAALGCLVKDYFPEPVTVSWNSGALTSGVHTFPAVLQSSGLYSLSSVVTVPSSSLGTQTYICNVNHKPSNTKVDKRVEPKSCDKTHTCPPCPAPELWNGPSVFLFPPKPKDTLMISRTPEVTCVVVDVSDEDPEVKFNWYVDGVEVHNAKTKPREELYNSTYRVVSVLTVLHRDWLNGKEYKCKVSNTALPKPIEKTISKAKGQRREPQVYTLPPSREEMTKNQVSLTCLVKGFYPSDIAVEWESNGQPENNYKTTPPVLDSDGSFFLYSKLTVDKSRWQQGNVFSCSVLHEALHAHTTRKELSLSP
light: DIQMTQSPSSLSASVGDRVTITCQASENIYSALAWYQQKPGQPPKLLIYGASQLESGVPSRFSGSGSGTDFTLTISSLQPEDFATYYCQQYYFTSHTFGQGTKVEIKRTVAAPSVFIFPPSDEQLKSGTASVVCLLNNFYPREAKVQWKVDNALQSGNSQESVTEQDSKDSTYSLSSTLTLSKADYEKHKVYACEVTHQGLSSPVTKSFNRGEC
notes: also called COS009pHv1-SG1077R; COS009BpHv1-SG1077R
Binding activity value (Binding amount per 1 RU antibody) (cyno FcγRIIb): 0.082 RU per 1 RU antibody | Relative value of binding activity (cyno FcγRIIb): 2.86 fold, relative to COS0098pHv1-SG1 | Binding activity value (Binding amount per 1 RU antibody) (cyno FcγRIIa1): 0.0436 RU per 1 RU antibody | Relative value of binding activity (cyno FcγRIIa1): 2.23 fold, relative to COS0098pHv1-SG1 | Binding activity value (Binding amount per 1 RU antibody) (cyno FcγRIIa2): 0.0425 RU per 1 RU antibody | Relative value of binding activity (cyno FcγRIIa2): 2.51 fold, relative to COS0098pHv1-SG1 | Binding activity value (Binding amount per 1 RU antibody) (cyno FcγRIIIa(R)): 0.006 RU per 1 RU antibody | Relative value of binding activity (cyno FcγRIIIa(R)): 0.05 fold, relative to COS0098pHv1-SG1 | Binding activity value (Binding amount per 1 RU antibody) (cyno FcγRIIa3): 0.025 RU per 1 RU antibody | Relative value of binding activity (cyno FcγRIIa3): 3.96 fold, relative to COS0098pHv1-SG1 | Binding activity value (Binding amount per 1 RU antibody) (cyno FcγRIIIa(S)): 0.0084 RU per 1 RU antibody | Relative value of binding activity (cyno FcγRIIIa(S)): 0.07 fold, relative to COS0098pHv1-SG1 | Kd [1]: 70 nM | Relative value of binding activity (cyno FcγRIa): 0.06 fold, relative to COS0098pHv1-SG1
